What was measured:
[1] = biological target: caspase-1 as expressed in the IL-1β secretion assays (UniProt P29466); test: cell-based or functional assay
[2] = biological target: T1, CARD of caspase-1 (mammalian two-hybrid construct) (UniProt P29466 1-91); test: mammalian two-hybrid in 293T cells, pFR-Luc firefly reporter
T1 construct: domain: CARD; also called the CARD of caspase-1; not shown: two-hybrid fusion partner from a pCMV/AD or pCMV/BD plasmid
T1 sequence (looked up): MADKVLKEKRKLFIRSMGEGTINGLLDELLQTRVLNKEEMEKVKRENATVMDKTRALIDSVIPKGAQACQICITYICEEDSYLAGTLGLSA
Experimental: CARD-5 is a relatively small protein containing an N-terminal PYRIN domain and a C-terminal CARD domain (see, e.g., Masumoto et al. (1999) J. Biol. Chem. 274:33835-38). To identify whether the CARD domain of a CARD-containing protein interacted with the CARD of CARD-5, mammalian two-hybrid analysis was carried out using the CARD domains of 22 CARD-containing proteins (FIG. 13A). Mammalian two-hybrid assays were performed as described by Wang et al. (2001) J. Biol. Chem. 276:21405-21409. 293T cells were transfected with pCMV/AD and pCMVIBD plasmids, pFR-Luc firefly reporter (Stratagene), and pRL-TK Renilla reporter (Promega).

[3] = biological target: CARD-5 (ASC) as expressed in the NF-kB and IL-1β secretion assays (UniProt Q9ULZ3 1-195); test: cell-based or functional assay

“CARD-5 (ASC) as expressed in the NF-kB and IL-1β secretion assays (from UniProt Q9ULZ3 1-195)” showed a secreted IL-1β (ELISA of supernatants of COS-7L cells co-transfected with mouse pro-IL-1β) [1] of 150 to 400 pg/mL.

B1: CARD of CARD-5 (mammalian two-hybrid construct) (other, UniProt Q9ULZ3 107-195, looked up)
chain: AAKPGLHFIDQHRAALIARVTNVEWLLDALYGKVLTDEQYQAVRAEPTNPSKMRKLFSFTPAWNWTCKDLLLQALRESQSYLVEDLERS
notes: domain: CARD; also called CARD domain of CARD-5; the CARD of CARD-5 (ASC); not shown: two-hybrid fusion partner from a pCMV/AD or pCMV/BD plasmid
In the case of B1, the “fold activation of luciferase activity (mammalian two-hybrid)” value [2] is reported as 24 fold.

B2: full-length PYRIN-8 (PYRIN-8-FL, residues 1-1061 of SEQ ID NO:18) with a C-terminal FLAG epitope (other, not shown: small tags and cut ends)
chain: MLRTAGRDGLCRLSTYLEELEAVELKKFKLYLGTATELGEGKIPWGSMEKAGPLEMAQLLITHFGPEEAWRLALSTFERINRKDLWERGQREDLVRDTPPGGPSSLGNQSTCLLEVSLVTPRKDPQETYRDYVRRKFRLMEDRNARLGECVNLSHRYTRLLLVKEHSNPMQVQQQLLDTGRGHARTVGHQASPIKIETLFEPDEERPEPPRTVVMQGAAGIGKSMLAHKVMLDWADGKLFQGRFDYLFYINCREMNQSATECSMQDLIFSCWPEPSAPLQELIRVPERLLFIIDGFDELKPSFHDPQGPWCLCWEEKRPTELLLNSLIRKKLLPELSLLITTRPTALEKLHRLLEHPRHVEILGFSEAERKEYFYKYFHNAEQAGQVFNYVRDNEPLFTMCFVPLVCWVVCTCLQQQLEGGGLLRQTSRTTTAVYMLYLLSLMQPKPGAPRLQPPPNQRGLCSLAADGLWNQKILFEEQDLRKHGLDGEDVSAFLNMNIFQKDINCERYYSFIHLSFQEFFAAMYYILDEGEGGAGPDQDVTRLLTEYAFSERSFLALTSRFLFGLLNEETRSHLEKSLCWKVSPHIKMDLLQWIQSKAQSDGSTLQQGSLEFFSCLYEIQEEEFIQQALSHFQVIVVSNIASKMEHMVSSFCLKRCRSAQVLHLYGATYSADGEDRARCSAGAHTLLVQLPERTVLLDAYSEHLAAALCTNPNLIELSLYRNALGSRGVKLLCQGLRHPNCKLQNLRLKRCRISSSACEDLSAALIANKNLTRMDLSGNGVGFPGMMLLCEGLRHPQCRLQMIQLRKCQLESGACQEMASVLGTNPHLVELDLTGNALEDLGLRLLCQGLRHPVCRLRTLWLKICRLTAAACDELASTLSVNQSLRELDLSLNELGDLGVLLLCEGLRHPTCKLQTLRLGICRLGSAACEGLSVVLQANHNLRELDLSFNDLGDWGLWLLAEGLQHPACRLQKLWLDSCGLTAKACENLYFTLGINQTLTDLYLTNNALGDTGVRLLCKRLSHPGCKLRVLWLFGMDLNKMTHSRLAALRVTKPYLDIGC
For B2, the “NF-kB activity (relative luciferase activity, pNF-kB-Luc reporter in 293T cells)” value [3] was 150 fold.
